# pKd: −log10 of the molar value.
# Experiments:
# [1] = target: HIV-1 capsid (CA) unassembled CA (Human immunodeficiency virus 1) (UniProt O93182); details: cited from earlier work
# [2] = target: HIV-1 capsid (CA) hexamer CA (Human immunodeficiency virus 1) (UniProt O93182); details: cited from earlier work
# [3] = target: GFP-Pom121 (266-1249), transmembrane domain truncated (UniProt Q96HA1); experiment: FFS; details: n = 10 scans; parent: est. 1.0; read off a plot
# [4] = target: Nup98 fragment 118–345 (13 FGs); experiment: FFS; details: n = 10 scans; parent: est. 1.1; read off a plot
# [5] = target: Nup153 (1407-1423) peptide (UniProt P49790); experiment: FFS; details: parent: est. 1.0, read off a plot
# Nup153 (1407-1423) peptide, sequence (P49790 whole entry, looked up, the tested form may be a part): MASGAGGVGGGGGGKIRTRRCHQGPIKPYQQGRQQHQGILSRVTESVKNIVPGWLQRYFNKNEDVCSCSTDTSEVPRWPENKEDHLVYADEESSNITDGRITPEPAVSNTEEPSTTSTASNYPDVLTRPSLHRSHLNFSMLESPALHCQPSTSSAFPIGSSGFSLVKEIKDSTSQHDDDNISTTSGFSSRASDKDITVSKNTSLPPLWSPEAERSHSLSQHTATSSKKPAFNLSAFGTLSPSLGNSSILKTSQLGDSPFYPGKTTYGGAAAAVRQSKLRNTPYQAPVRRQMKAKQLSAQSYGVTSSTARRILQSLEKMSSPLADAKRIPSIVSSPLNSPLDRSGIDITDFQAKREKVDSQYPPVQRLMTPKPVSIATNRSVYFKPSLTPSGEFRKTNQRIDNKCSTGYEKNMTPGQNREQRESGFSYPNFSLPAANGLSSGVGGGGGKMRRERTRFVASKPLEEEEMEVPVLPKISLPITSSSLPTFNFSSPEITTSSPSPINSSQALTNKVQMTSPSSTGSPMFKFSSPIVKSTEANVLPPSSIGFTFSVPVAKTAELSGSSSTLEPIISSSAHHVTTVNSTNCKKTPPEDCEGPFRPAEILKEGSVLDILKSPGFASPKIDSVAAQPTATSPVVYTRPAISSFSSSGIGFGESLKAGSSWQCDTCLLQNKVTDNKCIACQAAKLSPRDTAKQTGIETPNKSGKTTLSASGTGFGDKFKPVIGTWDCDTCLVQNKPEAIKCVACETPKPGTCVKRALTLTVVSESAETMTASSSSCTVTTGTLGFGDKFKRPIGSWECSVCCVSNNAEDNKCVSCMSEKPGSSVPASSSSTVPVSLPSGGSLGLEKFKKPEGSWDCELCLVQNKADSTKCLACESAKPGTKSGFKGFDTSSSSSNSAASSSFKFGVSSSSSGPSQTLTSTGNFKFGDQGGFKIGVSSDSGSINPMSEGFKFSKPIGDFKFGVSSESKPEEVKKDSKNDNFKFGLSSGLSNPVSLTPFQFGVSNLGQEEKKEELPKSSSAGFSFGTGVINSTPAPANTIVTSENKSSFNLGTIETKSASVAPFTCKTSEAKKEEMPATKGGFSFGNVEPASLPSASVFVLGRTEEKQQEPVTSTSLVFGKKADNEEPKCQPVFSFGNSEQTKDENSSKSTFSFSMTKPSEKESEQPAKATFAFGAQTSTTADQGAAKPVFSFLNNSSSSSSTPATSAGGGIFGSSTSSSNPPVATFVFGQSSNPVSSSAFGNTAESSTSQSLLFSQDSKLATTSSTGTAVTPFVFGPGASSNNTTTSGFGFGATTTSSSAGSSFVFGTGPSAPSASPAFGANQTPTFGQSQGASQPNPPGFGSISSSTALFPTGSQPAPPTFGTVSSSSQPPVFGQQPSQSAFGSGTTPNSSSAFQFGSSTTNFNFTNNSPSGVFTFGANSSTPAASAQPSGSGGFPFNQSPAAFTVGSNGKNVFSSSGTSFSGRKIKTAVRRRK
# [6] = target: GFP-Nup214 (1210-2090), FG-repeat domain (UniProt P35658); experiment: FFS; details: n = 15 scans; parent: est. 1.0; read off a plot
# [7] = target: CPSF6 (313-327) peptide, Q16630-2; experiment: FFS; details: parent: est. 1.0, read off a plot
# CPSF6 (313-327) peptide, Q16630-2, sequence (Q16630 whole entry, looked up, the tested form may be a part): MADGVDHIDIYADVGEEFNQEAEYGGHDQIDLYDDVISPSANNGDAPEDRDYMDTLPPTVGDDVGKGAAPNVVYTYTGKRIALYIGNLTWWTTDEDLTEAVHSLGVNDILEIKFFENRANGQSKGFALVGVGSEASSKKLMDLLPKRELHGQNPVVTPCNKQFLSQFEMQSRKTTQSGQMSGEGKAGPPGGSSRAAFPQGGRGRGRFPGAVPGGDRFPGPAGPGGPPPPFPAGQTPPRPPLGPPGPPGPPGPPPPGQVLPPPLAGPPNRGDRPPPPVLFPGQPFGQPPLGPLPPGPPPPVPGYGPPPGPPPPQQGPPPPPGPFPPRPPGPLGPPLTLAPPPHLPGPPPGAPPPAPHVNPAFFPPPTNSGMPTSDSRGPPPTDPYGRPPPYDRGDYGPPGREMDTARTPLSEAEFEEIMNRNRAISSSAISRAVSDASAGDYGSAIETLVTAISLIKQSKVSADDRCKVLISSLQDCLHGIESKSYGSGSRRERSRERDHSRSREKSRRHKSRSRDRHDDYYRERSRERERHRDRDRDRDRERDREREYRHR
# [8] = target: Nup98 fragment 1–119 (13 FGs); experiment: FFS; details: n = 10 scans; parent: est. 1.1; read off a plot
# GFP-Nup58 (full-length) = GFP-Nup58 (full-length) (UniProt Q9BVL2); experiment: FFS; details: n = 15 scans; parent: est. 1.0; read off a plot
# GFP-Nup42 (full-length) = GFP-Nup42 (full-length) (UniProt O15504); experiment: FFS; details: n = 10 scans; parent: est. 1.0; read off a plot
# [9] = target: Nup98 fragment 346–499 (13 FGs); experiment: FFS; details: n = 10 scans; parent: est. 2.4; read off a plot
# GFP-Nup62 (full-length) = GFP-Nup62 (full-length) (UniProt P37198); experiment: FFS; details: n = 10 scans; parent: est. 1.0; read off a plot
# CypA, GFP fusion = CypA, GFP fusion (UniProt P62937); experiment: FFS; details: parent: est. 1.0, read off a plot
# [10] = target: GFP-Nup98 (1-499), FG-repeat domain (UniProt P52948); experiment: FFS; details: n = 10 scans; parent: est. 1.0; read off a plot
# [11] = target: HIV-1 capsid (CA) CA (Human immunodeficiency virus 1) (UniProt O93182); details: cited from earlier work
# [12] = target: unstructured FG domain of Nup98 (residues 1-499), His-tagged, as phase-separated condensates (human) (UniProt P52948)
Substance,ratio to parent [3],ratio to parent [6],ratio to parent ([7]; n = 10 scans),ratio to parent (GFP-Nup42 (full-length)),ratio to parent (GFP-Nup62 (full-length)),"ratio to parent (CypA, GFP fusion; n = 10 scans)",ratio to parent [10],ratio to parent ([5]; n = 10 scans),other results
CPSF6 313-327 (from UniProt Q16630),–,–,–,–,–,–,–,–,pKd [1]: 3.15; pKd [2]: 4.30
"capsid-like particles (CLPs; CA A204C cross-linked assemblies labelled with Alexa Fluor 568), wild-type N57D",-0.02,0.2,0.03,0.35,-0.1,1.4,0.35,–,response [4]: 0.22; ratio to parent ([5]; n = 9 scans): 0.18; response [8]: 0.19; ratio to parent (GFP-Nup58 (full-length)): -0.1; response [9]: 0.2
"capsid-like particles (CLPs; CA A204C cross-linked assemblies labelled with Alexa Fluor 568), wild-type N74D",1.9,1.8,–,1.8,–,–,1.7,1.4,"ratio to parent ([7]; n = 8 scans): 0; ratio to parent (CypA, GFP fusion; n = 8 scans): 1.3"
"capsid-like particles (CLPs; CA A204C cross-linked assemblies labelled with Alexa Fluor 568), wild-type A77V",1.7,1.4,0.15,1.2,1.7,1.6,1.4,3.9,–
HIV-1 capsid (CA) CA (from UniProt O93182),–,–,–,–,–,–,–,–,pKd [11]: 4.40
"capsid-like particles (CLPs; CA A204C cross-linked assemblies labelled with Alexa Fluor 568), wild-type (complex)",–,–,–,–,–,–,–,–,"median penetration depth of unlabelled CLPs into Nup98 condensates, cryo-ET [12]: 65 nm"
